Laboratory results: patent publication US20230095569A1

Key:
[1] = target: mouse Claudine18.2 (mouse) (UniProt P56857); experiment: FACS on CHOK1-m18.2 cells
[2] = target: Rhesus monkey Claudine18.2 (Rhesus monkey) (UniProt F6YQY3); experiment: FACS on CHOK1-rh18.2 cells
[3] = target: human Claudin18.1 (CLDN18.1) (human) (UniProt P56856); experiment: FACS on CHOK1-18.1 cells
Chain of human Claudin18.1 (CLDN18.1) (human) (P56856 whole entry): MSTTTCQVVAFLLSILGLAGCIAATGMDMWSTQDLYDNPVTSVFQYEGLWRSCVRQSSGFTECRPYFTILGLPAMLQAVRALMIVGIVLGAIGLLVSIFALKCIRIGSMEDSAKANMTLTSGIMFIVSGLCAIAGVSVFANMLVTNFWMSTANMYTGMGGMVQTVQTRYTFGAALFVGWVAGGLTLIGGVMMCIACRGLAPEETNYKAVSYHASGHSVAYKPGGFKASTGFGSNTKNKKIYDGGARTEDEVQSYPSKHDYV

FACS MFI [1] | FACS MFI [2] | FACS MFI [3] | Binder
2040 | 1400 | – | Ab02 (antibody, V domains shown) VH: QVQLKESGPGLVAPSQSLSITCTVSGFSLTSYAINWVRQPPGKGLEWLGVIWTGGGTNYNSALKSRLSINKDNSKSQVFLKMNSLQTDDTARYYCARFYDGYYSWFAYWGQGTLVTVSA VL: DIVMTQSHKFMSTSVGDRVSITCKASQDVGTAVTWYQQKPGQSPKLLIYWASTRHTGVPDRFTGSGSGTDFTLTISNVQSEDLADYFCQQYSSYPFTFGSGTKLEIK
21600 | 17400 | 4300 | Ab36 (antibody, V domains shown) VH: EVKLEESGGGLVQPGGSMKLSCVASGFTFSNYWMNWVRQSPEKGLEWVAQIRLKSDNYATHYAESVKGMFTISRDDSKSSVYLQMNNLRAEDTGIYYCTAGGDYWGQGTTLTVSS VL: DIVMTQSQKFMSTTVGDRVSITCKASQNVGTAVAWYHQKPGQSPKLLIYSASNRYTGVPDRFIGSGSGTDFTLTISNVQSEDLGNYFCQQYINYLLTFGSGTKLEIK
13500 | 7890 | – | Ab18 (antibody, V domains shown) VH: QVQLKESGPGLVAPSQSLSITCTVSGFSLTTYGINWVRQPPGKGLEWLGVIWGDGSTNYHSALISRLSISKDNSKSQVFLKLNSLQTDDTATYYCVKSSYYGNAMDYWGQGTSVTVSS VL: DIVMTQSPSSLTVTAGETVTMSCKSSQSLLNSGNQKNYLTWYQQKPGQPPKLLIYWASTRESGVPDRFTGSGSGTDFTLTISSVQAEDLAVYYCQNVYSYPFTFGSGTKLEI
15200 | 8240 | – | Ab21 (antibody, V domains shown) VH: EVMLVESGGGLVKPGGSLKLSCAASGFTFSSYTMSWVRQTPEKRLEWVATIIGGYGNTYYVDSVKGRFTISRDSAKNTLYLQMISLRSEDTALYYCTRLGQTQRNAMDYWGQGTSVTVSS VL: DILMTQSPSSLSVSAGEKVTMSCKSSQSLLNSGNQKNYLAWYQQKPGQPPKLLIYGASTRESGVPDRFTGSGSGTDFTLTISSVQAEDLAVYYCQNDYYYPFTFGAGTKLEL
13400 | 6290 | – | Ab19 (antibody, V domains shown) VH: EVMLVESGGDLVKPGGSLKLSCAASGFSFSRYTMSWVRQTPEKRLEWVATVSVGSGNTYYLDSVKGRFTISRDNAKNTLFLQMSSLRSEDTALYYCARMGQTQRNAVDYWGQGTSVTVSS VL: DIVMTQSPSSLSVSAGEKVTMSCKSSQSLFNSGNQKNYLAWYQQKPGQPPKLLIYGASTRESGVPDRFTGSGSGTDFTLTISNVQAEDLAVYLCQNDHSFPLTFGAGTKLEL
12800 | 7520 | – | Ab24 (antibody, V domains shown) VH: EVKLVESGGGLVKPGGSLKLSCAGSGFTFSSYTMSWVRQTPEKRLEWVATITIGVNIYYLDSVKGRFTISRDNAKNTLYLQMNSLRSEDTALYYCTRLGQTQRNAMDYWGQGTSVTVSS VL: DIVMTQSPTSLSVSAGEKVTMTCKSSQSLFNSGNQKNYLAWYQEKPGQPPKLLIYGASTRESGVPDRFTGSGSGTDFTLTISSVQAEDLAVYYCQNVHFYPFTFGAGTKLEL
13800 | 7050 | – | Ab20 (antibody, V domains shown) VH: EVMLVESGGGLVKPGGSLKLSCVASGFTFSSYTMSWVRQTPEKRLEWVATIIGGYGNTYYSDSVKGRITISRDSAKNTLYLQMISLRSEDTALYYCTRLGQTQRNAMDYWGQGTSVTVSS VL: DILMTQSPSSLSVSAGEKVTMNCKSSQSLLNSGNQKNYLAWYQQKPGQPPKLLIYGASTRESGVPDRFTGSGSGTDFTLTISSVQAEDLAVYYCQNDYYYPFTFGAGTKLEL
15500 | 7330 | – | Ab22 (antibody, V domains shown) VH: EVMLVESGGGLVKPGGSLKLSCAASGFTFSSYTMSWVRQTPEKRLEWVATIIGGYGNTYYADSVKGRFTISRDSAKNTLYLQMISLRSEDTALYYCTRLGQTQRNAMDYWGQGTSVTVSS VL: DILMTQSPSSLSVSAGEKVTMSCKSSQSLLNSGNQKNYLAWYQQKPGQPPKLLIYGASTRESGVPDTFTGSGSGTDFTLTISSVQAEDLAVYYCQNDYYYPFTFGAGTKLEL
20400 | 15600 | 4470 | Ab38 (antibody, V domains shown) VH: QIQLVQSGPELKKPGETVKISCKASGYTFTNYGMSWVKQAPGKGLKWMGWINTYSGVPTYADDFKGRFVFSLEASASTAYLQINNLKNEDAATYFCSRWSGPDPLEDHWGQGTTLTVSS VL: QIVLTQSPAIMSASPGEKVTMTCTASLSLNYIHWYRQRSGTSPKRWIYDTSKLASGVPSRFSGSGSGTSYSLTISSMEAEDAATYYCQQWSSNPWTFGGGTKLEIK
13300 | 6680 | – | Ab17 (antibody, V domains shown) VH: QVQLKESGPGLVAPSQSLSITCTVSGFSLTSYAISWVRQPPGKGLEWLGEIWTGGGTNYNSALKSRLSISKDNSKSQVFLKMNSLQTDDTARYYCGRLSYGNSLDYWGQGTTLTVSS VL: DIVMTQSPSSLTVTAGEKVTMSCKSSQSLLNSGNQKNYLTWYQQKPGQPPKLLIYWASTRESGVPDRFTGSGSGTDFTLTVSSVQAEDLAVYYCQNNFIYPLTFGPGTKLELK
